# Experimental data as given in the nanobody polyreactivity screen of Harvey et al. (2022).
# Assay: yeast display, Sf9 membrane polyspecificity reagent, FACS + sequencing; frameworks hold sequencing errors
# Method in brief: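 Using colony PCR, genes from sorted yeast display clones were amplified, then sequenced on MiSeq at 2 × 250 and filtered by CDR length. The clones had been stained with 10% biotinylated, detergent-solubilized Sf9 membrane reagent for 1 hour at 4 °C and sorted by FACS into low and high (top ~1%) gates on anti-HA and streptavidin fluorescence. Polyreactivity labels come from the gate of origin.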
row,Sequence,polyreactivity (PSR sort gate)
1,QVQLVESGGGLVQAGGSLRLSCAASGSIFAYYTMGWYRQAHGKERELVAAISRSGGSTNYADSVKGRFTISRDNAKNTVYLQMNSLKPEDTAVYYCAVRRYSRRLFGYYYWGQGTQVTVSS,high polyreactivity
2,QVQLVESGGGLVQAGGSLRLNCAASGRSFQSYAMGWYRTAPGKERELVAAITWSGGDTYYADSVKGRFTISRDNAKNTVYLQMNSLKPEDTAVYYCAKEQGLYSVSPYDYWGQGTQVTVSS,low polyreactivity
3,QVQLVESGGGLVQAGGSLRLSCAASGRTFKQYAMGWYSQAPGKERELVAAISRTGGRTYYADSVKGRFTISRDNAKNTVYLQMNSLKPEDTAVYFCNAVYYWYKGDYWGQGTQVTVSS,high polyreactivity
4,QVQHVESGGGLVQAGGSLRLSCAASGRTFGLNAMGWYRQAPGKERELVAAISGSGGRTYYADSVKGRFTISRDNAKNTVYLQMNSLKPEDTAVYYCARVPSGQLEYDYWGQGTQVTVSS,high polyreactivity
5,QVQLVESGGGLVQAGGSLRLSCAASGIIFDYYTMGWYRQAPGKARELVAGITRSGGRTYYADSVKGRFTISRDNAKNTVYLQMNSLKPEETAGYYCAAVQRRTYVKYESWGQGTQVTVSS,high polyreactivity
6,QVQLVESGGGLVQAGGSLRLSCAASGSTFYFYAKGWYRQAPGRELEWVAAISYSGGSTYYADSVKGRFTISRDNAKNTVYLQMNSLTPEDTAVYSCAADAAFYYDADDEYDYWGQGTQVTVSS,low polyreactivity
7,QVQLVESGGGLVQAGGSLRLSCAASGITFVAYAMGWYRQAPGKERELVAAISGGGGSTYYADSVKGRFTISRDNAKNTVYLQMNSLKPEDTAVYYCAGVYTYPLGYYHYTYDYWGQGTQVTVSS,low polyreactivity
8,QVQLVESGGCLVQAGGSLRLSCAASGLIFGDYAMGWYRPAPGKESELVAAITGSFTRTYYADSVKGSFTISRDNAKNTVYLQMNSLKPEDTAVYYCAADWYKRPPYVYWGQGTQVTLSS,low polyreactivity
9,QVQLVESGGGLVQAGGSLRLSSAASGIIFRRYAMGWYRQAPGKERELVAAMSWSGGSTYYADSVKGRFTISRDNAKNTVYLQMNSLKPEDTAVYYCAAAAYTRDEYDYWGQGTQVTVSS,high polyreactivity
10,QVQLVESGGGLVQAGGSLRLSCAASGHIFNYYAMGWYRQAPGKERELVAAIRSGARTSYADSVKGRFTISRDNAKNTVNLQMNSLKPEDTAVYYCAAVGVAYLYPSDYWGQGTQVPVSS,high polyreactivity
11,QVQLVESGGGLVQAGGSLRLSCDASGNIFKSYVMGWYRQAPGKERELVAAITWSGGSTYYADSVKGRFTISRDNAKNTVYLQMNSLKPEDTAVYYCAAYPRRYRTTYDYWGQGTQVTVSS,high polyreactivity
12,QVQLVESGGGLVQAGGSLRISCAASGRTFRWYAMGWYRQAPGKERELVAAISWNGGSTYYADSVKGRFTISRDNAKNTVYLQMNSLKPEDTAVYYCAVKAGPSRPYYSWGQGTQVTVSS,high polyreactivity
13,QVHLVESGGGLVPAGGSLRLSCPASGSIFYEYAMGWYRQPPGKERELVAAITVTSGSTYYADSVKGRFTISRDNAKNTVYLQMNSLKPEDTAVYYCASRIYHTYRFYYWGQGTQVTVSS,low polyreactivity
14,QLRLVESGGGLVQAGGSLRLSCAAYGFIFRNNAMGWYRQAPGKERELVAVISFSGGSTYYADSVKGRFTISRDNAKHTVYLQMNSLKPEDTAVYYCAADDYQVQYDYWGQGTQVTVSS,low polyreactivity
15,QDQLVDSGGGLVQAGGSLRLRCGASGRILAWYAMGWYRQAPGKEREFVAGNTGSVGSTYYADSVKGRFTNSRDNEKNTVDLQMNSLKPEDTAVYYCYNEWDSTSGQKHYYWGQGTQVTVSS,low polyreactivity
16,QVQLVESGGGLVQAGGSLRLSCAASGGTFYSYAMGWYRQAPGTERELVAAISRRGGSTYYADSVKGRFTISLDNAKNTVYLQMNSLKPEDTAVYYCNTYIYQVRDDYWGQGTQVTVSS,high polyreactivity
17,QVQLVESGGGLVQAGGSLRLSCAASGRIFRSYAMGWYRQAPGKERELVAAITGSTGSTSYADSVKGRFTISRDNAKNTVYLQMNSLKPEDTAGYYCNAEYSSGYGQSHTYFYEYDYWGHGTQVTVSS,low polyreactivity
18,QVQLEESGGGLVQAGGSLRLSCAASGSIFAVYAMGWYRHAPGKERELVAAIRSGSRTYYADSVKGRFTISRDNAKNTVYLQMNSLKPEDTAVYYCATTYGTPRYDYWGQGTQVTVSS,high polyreactivity
19,QVQLVESGGGLVQAGGSLRLSCAASGSIFPSNAMGWYRQAPGKERELVAAINRDGITNYADSVKGRFTISRDNAKNTVYLQMNSLKPEDTAVYYCAAEFAWQWWEYGYWGQGTQVTVSS,low polyreactivity
20,QVQLVESGGGLVQAGGSLRLSCAASGRTIDWYAMGWYRQAPGKVRELVAGITYSGGSTYYADSVKGRFTISRDIANKTVYFQMNSLKPEDTAVYYCAAAKSYRSGSWYEYWGQGTQVTVSS,high polyreactivity
21,QVQLVESGGGLVQAGGSLRLSWAASGRTFDYNAMGWYRQAPGKERELVAAITSSGGSTYYADSVKGRFTISRDNAKNTVYLQMNSLKPEDTAVYYCDTDGQSPYYIYYWGQGTQVTVSS,low polyreactivity

row,Sequence,polyreactivity (PSR sort gate)
1,QVQLVESGGGLVQAGGSLRLSCAASGRTFASNAMGWYRQAPGKERELVAAISSSGGRTYYADSVKGRFTISRDNAKNTVYLQMNSLKPEDTAVYYCAKVGPVYKYDYWGQGTQVTVSS,high polyreactivity
2,QVQLVESGGGLVQAGGSLRLSCAASGRTFAWNAMGWYRQAPGKERELVAAISSRGTSTYYADSVKGRFTISRDNAKNTVYLQMNSLKPEDTAVYYCAKYTNPASGEYGYWGQGTQVTVSS,high polyreactivity
3,QVQLVESGRGLVQAGGSLRLSCAASGFTFPDNTMGRYRQAPGKERVLVAGIRRRGGSTYYADSVKGRFTISRDHAKKTVSLQMNSLKPEDTAVYYCAASRAVTQYSGGGYWGQGTQVTVSS,high polyreactivity
4,QVQLVESGGGLVQAGGSLRLSCAASGSTFRYNTMGWYRQAPGKERELVAAINISSSSTYYADSVKGRFTISRDNAKNTVYLQMNSLKPEDTAVYYCAKRDFVPIATDENDDYWGQGTQVTVSS,low polyreactivity
5,QVQLVESGGGLVQAGGSLRLSCAASGFSFDSNAMGWYRQAPGKERELVAVITSSGGRTYYADSVKGRFTISRDNAKNTVYLQMNSLKPEDTAVYYCAAAKKFFWYEYDYWGQGTQVSVSS,high polyreactivity
6,QVQLVESGGGLVQAGGSLRLSCAASGGIFSSYVMGWYRQAPGKERELVAAIRWSGSSTYYADSVKGRFTISRDNAKNTVYLQMNSLKPEDTAVYYCAAYRDYGSYGSWGQGTQVTVSS,high polyreactivity
7,QVQLVESGGGLDQAGGSLRLSCPASAITFQLYAKGWYRQAPGKERELVAAISRSGSGTYYADSVKGRFTISRDNAKNTVYLQMHSLKPEDTAVYYCAALGPGYYWGQGTQVTVSS,high polyreactivity
8,QVQLVESGGGLVQAGGSLRLSCAASGSTVWWYAMGWDRQAPRKERELVAVITRSSDSTSYADSVKGRFTLSRDNAKNTVFLQMNSLKPEDTAVYYCAALYRSYRYEYYYWGQATQVTVSS,high polyreactivity
9,QVQLVESGGGLVQAGGSLRLSCAASGSTSRGNAMGWYRQAPGKERELVAAISYIGGTTYYADSVKGRFTISRDNAKNTVYLQMNSLKPEDTAVYYCAADLYRSILKPDYDYWGQGTQVTVSS,high polyreactivity
10,QVQLVVSGGGLVQAGGSLRLSCAASGSIFAQNVMGWYRQAPGKERELVAAISYCGGTTYYADSVKGRFTISRDNAMNSVYLQMNSLKPEDTAVYYCAAEFGVYEYDYWGQGTQVTVSS,low polyreactivity
11,QVQLVESGGGLVQAGGSLLLSCAASGRTLFVYDMGWYRQAPGKERELVAAITWGVGSTYYADSVKGRFTISRDNAKNTVYLQLNSLKPEDTAVYYCNAVAIRYYRWYYYWGQGTQVTVSS,high polyreactivity
12,QVQLVESGGGLVQAGGSLRLSCAASGFIFGYYAMGWYRQAPGKERELVAAITRSGGSTRYADSVKGRFTLSRDNAKNTVYLQMNSLKPEDTAVYYCTAYAPRQLYGYDYWGQGTQVTVSS,high polyreactivity
13,QVQLEESGGGLVQAGGSLRLSCAASGRTFGTYVMGWNRQATGKHRELVAAISRSGGGTYYADSVKGRFTISRDNEKNTVYLQMNSLKPEDTAVYYCADRRVVYRYYWYSAYDYWGQGTQVTVSS,high polyreactivity
14,QVQLVESGGGLVQAGGSLRLSCAASGLTFIFNAMGWYRQAPGKERELVADISSGVNTNYADSVKGRFTISRDNAKNTVYLQMNSLKPEDTAVYYCNARRYWLRYDYWGQGTQVTVSS,low polyreactivity
15,QVQLVESGGGLVQAGGSLRLSCAASGSTFDPYAMGWYRQAPGKEREFVADIDSSVGSTFYADSVKGRFTISRDNAKNTVYLQMNSLKPEDTAVYYCAAVYESYYYEYYYWGQGTQVTVSS,high polyreactivity
16,QVQLVESGGGLVQAGGSLRFSCAASGRPFPYYVMGWYRQAPGKERELVAAINSGGRTNYADSVKGRFTISRDNAKNTVYLQMNSLKPEDTAVYYCTKRGHPARLGYYYWGQGTQVNVSS,low polyreactivity
17,QVQLVESGGGLVQAGGSLRLSCAASGRTFKRNTMGWYRQAPGKERELVAAISGTGSTNYADSVKGRFTISRDNAKNTVYLQMNSLKPEDTAVYYCGADDFSTVEYDYWGQGTQVTVSS,low polyreactivity
18,QVQLVESGGGIVQAGGSLRLSCAASGRIIYNYGLGWYRQAPGKERELVARITTGGRTNYADSVKGRFTISRDNAKNTVYVQMNSLKPEDTAVYFCNAVGYHSRWYYYNYDYWGQGTQVTVSS,low polyreactivity
19,QVQLVESGGGLVQAGGSLRLSCAASGRTFFRYAMGWYRQAPGKERELVAAISSRGGSTYYADSVKGRFTISRDNAKNTVYLQMNSLKPEDTAVYYCNAAAFINFILYDYWGQGTQVTVSS,high polyreactivity
20,QVQLVESGGGLVQAGGSLRLSCAASGLTFYYYVMGWYRQAPGKERELVAAINATGGRTYYADSVKGRFTISRDNAKNTVYLQMNSLKPEDTAVYYCAAYSGFYASYDYWGQGTLVTVSS,low polyreactivity
